Test results reported in paper doi:10.1101/2025.09.03.673757.

Assays:
[1] = target: N-terminally His6-tagged Gαo E246K mutant (rat) (UniProt P59215)
[2] = target: N-terminally His6-tagged wild-type Gαo (rat) (UniProt P59215)

RGS16 domain (domain or fragment)
kGAP (single-turnover GTPase assay, 400 nM Gα, 20 nM RGS16) [1]: 1.7 min⁻¹
kGAP (single-turnover GTPase assay, 400 nM Gα, 20 nM RGS16) [2]: 1.6 min⁻¹
